# Numbered stars: 1 amine (or outer) side, 2 acyl side, 3 side chain; on linkers, the order of the positions; unused ones are H or OH. Bridge positions count the residues as written; N and C are the ends. Square brackets hold non-standard residues; d marks the D form. * marks the point of attachment. (R)‑NODAGA = O=C(O)CN1CCN(CC(=O)O)CCN([C@H](CCC(=O)*)C(=O)O)CC1; 6FAM = O=C1OC2(c3ccc(O)cc3Oc3cc(O)ccc32)c2cc(C(=O)*)ccc21; DOTA = O=C(O)CN1CCN(CC(=O)O)CCN(CC(=O)*)CCN(CC(=O)O)CC1; TATA = O=C(CC[*:1])N1CN(C(=O)CC[*:2])CN(C(=O)CC[*:3])C1; Ser(et) = O-ethylserine, CCOC[C@H](N[*:1])C(=O)[*:2]; Mox = methoxinine, COCC[C@H](N[*:1])C(=O)[*:2]; 1Nal = N[C@@H](Cc1cccc2ccccc12)C(=O)O; 2Nal = N[C@@H](Cc1ccc2ccccc2c1)C(=O)O; Hyp = O=C(O)[C@@H]1C[C@@H](O)CN1; hArg = N=C(N)NCCCC[C@H](N)C(=O)O; Met(O) = CS(=O)CC[C@H](N)C(=O)O; SeMet = C[Se]CC[C@H](N)C(=O)O; Nle = CCCC[C@H](N)C(=O)O
# B1: 6 (peptide)
# chain: {(R)‑NODAGA}-CP[1Nal][dD]C[Ser(et)][hArg]DWSTP[Hyp]WC-NH2
# modifications: linker 1-5-15 via TATA
# SMILES: CCOC[C@@H]1NC(=O)[C@@H]2CSCCC(=O)N3CN(CN(C3)C(=O)CCSC[C@H](NC(=O)CC[C@H](C(=O)O)N3CCN(CC(=O)O)CCN(CC(=O)O)CC3)C(=O)N3CCC[C@H]3C(=O)N[C@@H](Cc3cccc4ccccc34)C(=O)N[C@H](CC(=O)O)C(=O)N2)C(=O)CCSC[C@@H](C(N)=O)NC(=O)[C@H](Cc2c[nH]c3ccccc23)NC(=O)[C@@H]2C[C@@H](O)CN2C(=O)[C@@H]2CCCN2C(=O)[C@H]([C@@H](C)O)NC(=O)[C@H](CO)NC(=O)[C@H](Cc2c[nH]c3ccccc23)NC(=O)[C@H](CC(=O)O)NC(=O)[C@H](CCCCNC(=N)N)NC1=O
# Key:
# [1] = target: T1, recombinant human nectin-4 (human, UniProt Q96NY8 32-349); assay: SPR; Biacore T200, human nectin-4 immobilised on CM5 chip by amine coupling, peptides as analytes, single-cycle kinetics, 25 °C, HBS-P+ pH 7.4, no DMSO, 1:1 binding model; conditions: both partners purified
# T1 construct: nectin-4, human, recombinant; also called complete extracellular domain of nectin-4; source: bought: R&D Systems (Catalog number 2659-N4)
# T1 sequence (looked up): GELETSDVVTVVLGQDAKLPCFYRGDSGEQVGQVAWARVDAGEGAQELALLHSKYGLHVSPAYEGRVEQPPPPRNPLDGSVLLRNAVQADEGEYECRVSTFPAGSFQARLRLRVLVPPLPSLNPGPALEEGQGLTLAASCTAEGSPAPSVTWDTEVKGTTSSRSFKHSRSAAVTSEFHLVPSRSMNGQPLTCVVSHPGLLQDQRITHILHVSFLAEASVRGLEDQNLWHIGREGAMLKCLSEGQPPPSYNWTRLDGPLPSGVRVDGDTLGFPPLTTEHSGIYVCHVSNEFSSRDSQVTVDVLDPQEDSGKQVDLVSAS
# [2] = target: T1, recombinant human nectin-4; assay: fluorescence polarisation; fluorescence anisotropy, competition: 1 nM probe 1a, 20 nM nectin-4, 10 concentrations of nonlabeled peptide, 37 °C, HEPES buffer pH 7.4, 1% DMSO; IC50 transformed into Kd (Nikolovska-Coleska equation, Kd of 1a 0.94 nM); conditions: both partners purified
# [3] = target: T2, nectin-4 on intact HT-1376 cells (human (endogenous in HT-1376), UniProt Q96NY8 32-510); assay: radioligand binding; intact HT-1376 cells, 10 nM radioligand, 37 °C, 1 h, PBS wash; nonspecific binding with 1 µM 1d (3a for [68Ga]Ga-8d); specific binding in fmol/mg protein; conditions: one partner purified
# T2 construct: also called cellular nectin-4
# T2 sequence (looked up): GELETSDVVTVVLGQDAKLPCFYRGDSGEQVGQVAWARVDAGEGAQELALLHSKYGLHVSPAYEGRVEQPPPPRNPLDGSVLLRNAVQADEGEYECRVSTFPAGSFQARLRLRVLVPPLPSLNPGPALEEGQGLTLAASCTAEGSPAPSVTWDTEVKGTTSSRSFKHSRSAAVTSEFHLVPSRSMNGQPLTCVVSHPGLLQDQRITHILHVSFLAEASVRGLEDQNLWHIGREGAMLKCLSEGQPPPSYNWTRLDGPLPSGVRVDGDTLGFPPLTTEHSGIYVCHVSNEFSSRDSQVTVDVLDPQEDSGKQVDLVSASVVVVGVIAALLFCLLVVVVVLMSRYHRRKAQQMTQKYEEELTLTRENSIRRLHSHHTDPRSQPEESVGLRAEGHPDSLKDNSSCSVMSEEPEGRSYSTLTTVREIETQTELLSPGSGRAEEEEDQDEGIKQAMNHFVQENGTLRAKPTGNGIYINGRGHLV
# [4] = target: T2, nectin-4 on intact HT-1376 cells; assay: radioligand binding; saturation binding on intact HT-1376 cells, 10 radioligand concentrations (0.156-80 or 0.321-160 nM), 37 °C, 1 h, PBS wash; nonspecific with 1 µM 1d; apparent (covers binding and putative internalisation); conditions: one partner purified
# [5] = target: T1, recombinant human nectin-4; assay: fluorescence polarisation; fluorescence anisotropy, direct binding: 1 nM fluorescent probe, 11 to 13 concentrations of nectin-4 (e.g. 0.06-250 nM), 37 °C, 1200 s, HEPES buffer 20 mM pH 7.4, 0.01% Tween20, NaCl, 1% DMSO; Morrison equation; conditions: both partners purified
Binder,Kd [1],koff [1],kon [1],Kd [2],further results
{(R)‑NODAGA}-CP[2Nal][dD]CM[hArg]DWSTP[Hyp]WC-NH2 (linker 1-5-15 via TATA) [9],4.58 nM,0.0765 s⁻¹,1.69e+07 M⁻¹ s⁻¹,11.5 nM,–
{(R)‑NODAGA}-CP[2Nal][dD]CMRDWSTP[Hyp]WC-NH2 (linker 1-5-15 via TATA; also: NODAGA complexed with 64Cu) [[64Cu]Cu-8a],–,–,–,–,specific cell binding at 10 nM radioligand [3]: 15.6 fmol/mg; Kd [4]: 51.7 nM
6FAM-CP[2Nal][dD]CMRDWSTP[Hyp]WC-NH2 (linker 1-5-15 via TATA) [8b],–,–,–,–,Kd [5]: 1.38 ± 0.06 nM
{(R)‑NODAGA}-CP[1Nal][dD]CMRDWSTP[Hyp]WC-NH2 (linker 1-5-15 via TATA) [10],2.51 nM,0.00278 s⁻¹,1.11e+06 M⁻¹ s⁻¹,0.61 nM,–
{(R)‑NODAGA}-CP[1Nal][dD]CM[hArg]DWSTP[Hyp]WC-NH2 (linker 1-5-15 via TATA; also: NODAGA complexed with natCu) [natCu-1e],–,–,–,0.23 nM,–
{DOTA}-CP[2Nal][dD]CMRDWSTP[Hyp]WC-NH2 (linker 1-5-15 via TATA) [8c],127 nM,0.00239 s⁻¹,20000 M⁻¹ s⁻¹,149 nM,–
B1,6.29 nM,0.0247 s⁻¹,3.86e+06 M⁻¹ s⁻¹,16.4 nM,–
{(R)‑NODAGA}-CP[1Nal][dD]C[Nle][hArg]DWSTP[Hyp]WC-NH2 (linker 1-5-15 via TATA) [3a],1.31 nM,–,–,1.04 nM,–
{(R)‑NODAGA}-CP[1Nal][dD]C[Mox][hArg]DWSTP[Hyp]WC-NH2 (linker 1-5-15 via TATA; also: NODAGA complexed with 68Ga) [[68Ga]Ga-4],–,–,–,–,Kd [4]: 13.1 nM
{(R)‑NODAGA}-CP[1Nal][dD]C[Met(O)][hArg]DWSTP[Hyp]WC-NH2 (linker 1-5-15 via TATA; also: Met(O): mixture of diastereomers) [2],–,–,–,25 nM,–
{(R)‑NODAGA}-CP[1Nal][dD]CM[hArg]DWSTP[Hyp]WC-NH2 (linker 1-5-15 via TATA) [1e],3.6 nM,0.00434 s⁻¹,1.21e+06 M⁻¹ s⁻¹,0.77 nM,–
{DOTA}-CP[2Nal][dD]CMRDWSTP[Hyp]WC-OH (linker 1-5-15 via TATA; also: DOTA complexed with 68Ga) [[68Ga]Ga-8d ([68Ga]Ga-N188)],–,–,–,–,Kd [4]: 222 nM
{(R)‑NODAGA}-CP[1Nal][dD]C[SeMet][hArg]DWSTP[Hyp]WC-NH2 (linker 1-5-15 via TATA) [5],–,–,–,1.37 nM,–
{(R)‑NODAGA}-CP[1Nal][dD]CM[hArg]DWSTP[Hyp]WC-NH2 (linker 1-5-15 via TATA; also: NODAGA complexed with natGa) [natGa-1e],2.39 nM,0.0026 s⁻¹,1.1e+06 M⁻¹ s⁻¹,4.47 nM,–
{(R)‑NODAGA}-CP[2Nal][dD]CMRDWSTP[Hyp]WC-NH2 (linker 1-5-15 via TATA) [8a],63 nM,0.0433 s⁻¹,680000 M⁻¹ s⁻¹,21 nM,–
{DOTA}-CP[2Nal][dD]CMRDWSTP[Hyp]WC-NH2 (linker 1-5-15 via TATA; also: DOTA complexed with 68Ga) [[68Ga]Ga-8c],–,–,–,–,specific cell binding at 10 nM radioligand [3]: 38.4 fmol/mg; Kd [4]: 103 nM
Ac-CP[1Nal][dD]CM[hArg]DWSTP[Hyp]WC-NH2 (linker 1-5-15 via TATA) [1d (BCY8126)],–,–,–,0.73 nM,–
{(R)‑NODAGA}-CP[1Nal][dD]CM[hArg]DWSTP[Hyp]WC-NH2 (linker 1-5-15 via TATA; also: NODAGA complexed with 68Ga) [[68Ga]Ga-1e],–,–,–,–,specific cell binding at 10 nM radioligand [3]: 474 fmol/mg; Kd [4]: 8.7 nM
{DOTA}-CP[2Nal][dD]CMRDWSTP[Hyp]WC-OH (linker 1-5-15 via TATA) [8d (N188)],236 nM,0.00881 s⁻¹,40000 M⁻¹ s⁻¹,191 nM,–
{(R)‑NODAGA}-CP[1Nal][dD]C[Nle][hArg]DWSTP[Hyp]WC-NH2 (linker 1-5-15 via TATA; also: NODAGA complexed with natCu) [natCu-3a],–,–,–,1.22 nM,–
{(R)‑NODAGA}-CP[1Nal][dD]CM[hArg]DWSTP[Hyp]WC-NH2 (linker 1-5-15 via TATA; also: NODAGA complexed with 64Cu) [[64Cu]Cu-1e],–,–,–,–,specific cell binding at 10 nM radioligand [3]: 159 fmol/mg; Kd [4]: 7.15 nM
{DOTA}-CP[1Nal][dD]CM[hArg]DWSTP[Hyp]WC-NH2 (linker 1-5-15 via TATA) [1f],1.31 nM,0.0115 s⁻¹,8.76e+06 M⁻¹ s⁻¹,7.22 nM,–
H-CP[1Nal][dD]CM[hArg]DWSTP[Hyp]WC-NH2 (linker 1-5-15 via TATA) [1c],–,–,–,1.51 nM,–
Ac-CP[1Nal][dD]C[Nle][hArg]DWSTP[Hyp]WC-NH2 (linker 1-5-15 via TATA) [3b],–,–,–,0.58 nM,–
6FAM-CP[1Nal][dD]CM[hArg]DWSTP[Hyp]WC-NH2 (linker 1-5-15 via TATA) [1b],–,–,–,–,Kd [5]: 0.17 ± 0.01 nM

# — article PMC12557367, ““Precision on Two Wheels”–Structural Refinement of ^64Cu- and ^68Ga-Labeled Bicyclic Peptides Targeting Nectin‑4 for Improved Tumor Imaging: From Preclinical Development to First-in-Human Application” (Journal of Medicinal Chemistry, 2025)
